Data published in patent US20060078880.

Assays:
[1] = system: C7.GAT C7 finger-3 helix RSDERKR replaced by TSGNLVR (SEQ 51) (synthetic); experiment: EMSA; settings: [none]; gel mobility shift; exact target oligo not stated
[2] = system: C7.GCG (C7) none; finger-3 helix RSDERKR (SEQ 50) (synthetic); experiment: EMSA; settings: CITED Segal 1999, exact target oligo not stated; cited from earlier work

Sequence | Kd [1] | Kd [2]
GATTGGGCG (double strand) [C7.GAT target, finger-2 subsite TGG] | 400 nM | 
GCGTGGGCG (double strand) [C7 target, finger-2 subsite TGG] |  | 0.5 nM
